Series [1] concerns CC[C@H](C)[C@H](NC(=O)[C@H](CCC(=O)O)NC(=O)[C@H](CCC(=O)O)NC(=O)[C@H](Cc1c[nH]cn1)NC(=O)[C@H](C)NC(=O)[C@H](CCCNC(=N)N)NC(=O)CCCCCNC(=O)CCCC[C@@H]1SC[C@@H]2NC(=O)N[C@@H]21)C(=O)N[C@@H](Cc1ccc(O)cc1)C(=O)N[C@@H](Cc1c[nH]cn1)C(=O)N[C@@H](Cc1ccccc1)C(=O)N[C@@H](Cc1ccccc1)C(=O)N[C@@H](Cc1ccccc1)C(=O)N[C@@H](C)C(=O)N[C@@H](CCCCN)C(=O)N[C@@H](CCCCN)C(=O)N[C@@H](CCCCN)C(N)=O. As to the kind of experiment: Two-substrate kinetic comparison with known substrate, peptide and ATP varied simultaneously. To be noted: other: ErbB-2; peptide and ATP concentrations varied simultaneously, two-substrate fit. The class given is biochemical. The method, then:
(§1) In a separate experiment, the kinetic parameters of both peptide number 1 shown in Table 2, and a peptide with the sequence Biotin-Ahx-G-G-M-E-D-I-Y-F-E-F-M-G-G-K-K-K-amide (SEQ ID NO: 17), which has been previously identified as an ErbB-2 substrate (Jan et. al., (2000), Biochemistry 39: 9786-803), were determined and compared. In this experiment, both peptide and ATP concentrations were varied, and the resulting data was simultaneously fit to an equation representing a two-substrate enzyme reaction using SIGMAPLOT®. Data was collected using the kinases ErbB-2, ErbB-4, and EGFR. The results of this experiment are shown in Table 3 and indicate that for all three kinases tested, peptide number 1 shown in Table 2 is kinetically at least equivalent (based on kcat/Km values) to the known peptide substrate identified by Jan et al.

In series [2] the test system is CC[C@H](C)[C@H](NC(=O)[C@H](CC(=O)O)NC(=O)[C@H](CCC(=O)O)NC(=O)[C@H](CCSC)NC(=O)CNC(=O)CNC(=O)CCCCCNC(=O)CCCC[C@@H]1SC[C@@H]2NC(=O)N[C@@H]21)C(=O)N[C@@H](Cc1ccc(O)cc1)C(=O)N[C@@H](Cc1ccccc1)C(=O)N[C@@H](CCC(=O)O)C(=O)N[C@@H](Cc1ccccc1)C(=O)N[C@@H](CCSC)C(=O)NCC(=O)NCC(=O)N[C@@H](CCCCN)C(=O)N[C@@H](CCCCN)C(=O)N[C@@H](CCCCN)C(N)=O. The description is as above. Type of series: biochemical. To be noted: other: ErbB-2; peptide and ATP concentrations varied simultaneously, two-substrate fit. On the procedure:
as §1

Regarding ErbB-2 (Homo sapiens), in series [1], the Km (in general, the concentration of substrate that gives half-maximal velocity) stood at 58 µM; the kcat (commonly the maximal rate divided by the concentration of active sites) came out at 0.0233 s⁻¹; the kcat/Km (as a rule, the turnover number divided by the Michaelis constant) is 417 M⁻¹ s⁻¹. Also, in series [2], the Km amounted to 157 µM, the kcat amounted to 0.0367 s⁻¹ and the kcat/Km worked out at 233 M⁻¹ s⁻¹.

Source of the values: patent US20030113711A1, “Protein kinase peptide substrate determination using peptide libraries” (priority 2001, published 2003).
